Numbering of substitutions follows the chain as printed.
B1: h_Nb4 (expressed from pFUSE-hIgG1-Fc) (Fc fusion)
chain: DVQLQESGGGLVQAGGSLRLSCAAPSRMFSGYTMGWYRQAPGKQRELVAQIANGGFTDYIDSVKGRFSISRDTVLNMMYLQMNSLKPEDTAVYYCNLVLVNGIPTRNWGQGTQVTVSS
notes: not shown: human IgG1 Fc as encoded by the pFUSE-hIgG1-Fc vector
B2: h_Nb5 (expressed from pFUSE-hIgG1-Fc) (Fc fusion)
chain: DVQLQESGGGAVQSGESLRLSCAASGRDLMFYDVAWFRQAPGKEREGVSYIRSSGTLTKYADSVKGRFTISRDNDKNTVSLQMNSLNPEDTAKYYCAARLQSATSHSDLREDEFNSWGQGTQVTVSS
notes: as for B1
B3: h_Nb6 (expressed from pFUSE-hIgG1-Fc) (Fc fusion)
chain: DVQLQESGGGLAQPGGSLRLSCAASGFTFSSYAMSWARQAPGKGLEWVAGIYRGGSDTYYADSVKGRFTISRDNTKNTLYLQMNSLKPEDTALYYCIQGWGLGYANYDYWGQGTQVTVSS
notes: as for B1
B4: h_Nb9 (expressed from pFUSE-hIgG1-Fc) (Fc fusion)
chain: DVQLQESGGGLVQPGGSLRLSCASSGSIFGLGVKGWYRQPPGNQREMVAQIISGGRISYADSVKGRFTISRDNAKNTVYLQMNSLKPEDTAVYYCNAWGPGQRNYWGRGTQVTVSS
notes: as for B1
B5: h_Nb12 (expressed from pFUSE-hIgG1-Fc) (Fc fusion)
chain: DVQLQESGGGLVQAGGSLRLSCAASGRTFSSRAMGWFRQAPGKEREFVAAISGSGRNTYYADSVKGRFTISRDNAKNSVNLQMNSLKPEDTAVYYCNAAGGGITIATMTQRTQYDYWGQGTQVTVSS
notes: as for B1
B6: h_Nb13 (expressed from pFUSE-hIgG1-Fc) (Fc fusion)
chain: DVQLQESGGGLVQPGGSLRLSCAASGSIFSINAMGWYRQAPGKSRELVAAITSGGSTNYADSVKGRFTISRDTAKNTVYLLMNSLEPEDTAVYYCNVERRRPPHYLSEYDFDWGQGTQVTVSS
notes: as for B1
B7: h_Nb26 (expressed from pFUSE-hIgG1-Fc) (Fc fusion)
chain: B6 chain with S25P, S30R, S44Q, K64Q, T73N, L81Q, E86K, L106Y, E108D
notes: as for B1

Target: T1, human PD-L1 on stably transfected cell line HEK293T/hPD-L1 (human, UniProt Q9NZQ7 19-290)
T1 construct: whole, on cells
T1 sequence (Q9NZQ7 19-290): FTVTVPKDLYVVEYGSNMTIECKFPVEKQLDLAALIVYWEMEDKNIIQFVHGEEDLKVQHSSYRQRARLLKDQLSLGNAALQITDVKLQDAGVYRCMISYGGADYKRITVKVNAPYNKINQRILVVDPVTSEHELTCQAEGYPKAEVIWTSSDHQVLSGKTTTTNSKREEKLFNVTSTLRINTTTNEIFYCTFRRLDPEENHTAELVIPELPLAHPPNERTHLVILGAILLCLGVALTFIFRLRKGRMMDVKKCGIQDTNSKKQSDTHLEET
Assay: flow cytometry on HEK293T/hPD-L1 cells, 10 ug/ml nanobody, anti-human IgG Fc (FITC)
Method: The stably transfected cell line HEK293T/hPD-L1 was digested and centrifuged, and the supernatant was removed. The cells were washed once with PBS and the cell density was adjusted to 2.5×10⁶ cells/mL. 100 μL of cell suspension was added to each cell sample, i.e., 2.5×10⁵ cells/sample. Different anti-human PD-L1 candidate nanobodies (at a concentration of 10 μg/ml) were added into the samples. The samples were incubated in a 4° C. refrigerator for 20 min and then centrifuged to remove the supernatant, and washed once with PBS. The diluted antibody anti-human IgG Fc (FITC) was used as a secondary antibody to resuspend the above cells. The abtained samples were incubated in a 4° C. refrigerator for 20 min and centrifuged to remove the supernatant. The cells were washed twice with PBS, transferred to a flow tube; and detected on a flow cytometer to obtain the binding activity of the candidate nanobody with human PD-L1, as shown in FIG. 1.

Q: Does B1 bind?
A: binds

Q: Does B2 bind?
A: binds

Q: Does B3 bind?
A: binds

Q: Does B4 bind?
A: binds

Q: Does B5 bind?
A: binds

Q: Does B6 bind?
A: binds

Q: Does B7 bind?
A: binds

From patent US20250197503A1 (SHANGHAI INSTITUTE OF MATERIA MEDICA CHINESE ACADEMY OF …, published 2025)
